Publication PMC9814530, “Rapid de novo discovery of peptidomimetic affinity reagents for human angiotensin converting enzyme 2” (Communications Chemistry, 2022)
Where no end group is shown, it is not given here.

Target: T1, human angiotensin converting enzyme 2 (ACE2), recombinant (human, UniProt Q9BYF1 18-740)
T1 construct: also called soluble ACE2; recombinant ACE2 protein; source: bought: Sino Biological (Catalog number 10108-H08H) for BLI
Assay: BLI; biotinylated peptide immobilised on streptavidin tips (loaded at 1.0-2.0 uM); protein in solution (ACE2 at 1000, 500, 250, 125 and 62.5 nM); 30 °C, 1000 rpm; 1 x PBS with 0.1% BSA and 0.02% Tween-20; 180 s association; global 1:1 fit; apparent KD
Conditions: both partners purified

T1 sequence (Q9BYF1 18-740): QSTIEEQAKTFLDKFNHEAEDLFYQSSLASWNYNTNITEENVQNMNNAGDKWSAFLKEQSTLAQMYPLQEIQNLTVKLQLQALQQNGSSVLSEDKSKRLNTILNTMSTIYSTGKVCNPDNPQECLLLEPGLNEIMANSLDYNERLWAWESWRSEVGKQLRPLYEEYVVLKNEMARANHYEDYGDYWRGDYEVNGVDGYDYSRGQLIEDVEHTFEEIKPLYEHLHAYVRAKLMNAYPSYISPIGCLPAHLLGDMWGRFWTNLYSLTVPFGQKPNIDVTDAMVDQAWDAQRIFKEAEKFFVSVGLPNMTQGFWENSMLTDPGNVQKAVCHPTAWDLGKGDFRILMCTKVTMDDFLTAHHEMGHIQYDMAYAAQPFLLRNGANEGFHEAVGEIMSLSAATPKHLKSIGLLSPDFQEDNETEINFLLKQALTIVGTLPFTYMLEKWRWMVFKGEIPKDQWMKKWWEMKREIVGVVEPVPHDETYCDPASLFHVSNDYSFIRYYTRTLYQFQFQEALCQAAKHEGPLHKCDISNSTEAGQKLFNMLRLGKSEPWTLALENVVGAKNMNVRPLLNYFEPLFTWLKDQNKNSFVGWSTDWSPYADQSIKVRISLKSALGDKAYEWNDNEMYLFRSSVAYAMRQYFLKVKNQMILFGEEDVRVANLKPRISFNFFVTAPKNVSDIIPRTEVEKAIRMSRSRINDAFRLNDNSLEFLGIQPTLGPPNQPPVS

Binder | Kd [nM]
LHKQFGWHWFGFK-NH2 (also: biotinylated, position not given here) [ACE2-binding peptide ABP C3] | 35
LQRGVFGFPYRVK-NH2 (also: biotinylated, position not given here) [ACE2-binding peptide ABP C7] | 26
LQWHPAYWFMQVK-NH2 (also: biotinylated, position not given here) [ACE2-binding peptide ABP C8] | 36
